# Laboratory results taken from article PMC6195611.
# Several values for one entry are separate records, joined by “and”; a condition that tells them apart may be missing. Equal entries are not always repeated.
# What was measured:
# [1] = target: K145E SAASoti (Stylocoeniella armata); test: SEC; Superdex 200 10/300 GL, 20 mM Tris-HCl 150 mM NaCl pH 7.5, 0.5 ml/min, absorbance at 280 and 509 nm (the legend of Fig. 2 gives Tris-HCl 100 mM, CaCl2 10 mM, pH 7.6); wild type also run with DTT
# [2] = target: K145N SAASoti (Stylocoeniella armata); test: two-focus fluorescence correlation spectroscopy (2fFCS); diffusion coefficient; 10 mM phosphate buffer, 150 mM NaCl pH 7.4, ~10^-9 M protein, 25 °C
# [3] = target: K145N SAASoti (Stylocoeniella armata); test: SEC; Superdex 200 10/300 GL, 20 mM Tris-HCl 150 mM NaCl pH 7.5, 0.5 ml/min, absorbance at 280 and 509 nm (the legend of Fig. 2 gives Tris-HCl 100 mM, CaCl2 10 mM, pH 7.6); wild type also run with DTT
# [4] = target: K149E SAASoti (Stylocoeniella armata); test: two-focus fluorescence correlation spectroscopy (2fFCS); diffusion coefficient; 10 mM phosphate buffer, 150 mM NaCl pH 7.4, ~10^-9 M protein, 25 °C
# [5] = target: K149E SAASoti (Stylocoeniella armata); test: SEC; Superdex 200 10/300 GL, 20 mM Tris-HCl 150 mM NaCl pH 7.5, 0.5 ml/min, absorbance at 280 and 509 nm (the legend of Fig. 2 gives Tris-HCl 100 mM, CaCl2 10 mM, pH 7.6); wild type also run with DTT
# [6] = target: K149N SAASoti (Stylocoeniella armata); test: two-focus fluorescence correlation spectroscopy (2fFCS); diffusion coefficient; 10 mM phosphate buffer, 150 mM NaCl pH 7.4, ~10^-9 M protein, 25 °C
# [7] = target: K149N SAASoti (Stylocoeniella armata); test: SEC; Superdex 200 10/300 GL, 20 mM Tris-HCl 150 mM NaCl pH 7.5, 0.5 ml/min, absorbance at 280 and 509 nm (the legend of Fig. 2 gives Tris-HCl 100 mM, CaCl2 10 mM, pH 7.6); wild type also run with DTT
# [8] = target: V127T SAASoti (Stylocoeniella armata); test: SEC; V127T SAASoti at high concentration (0.22 mM)
# [9] = target: wild type SAASoti (Stylocoeniella armata); test: SEC; Superdex 200 10/300 GL, 20 mM Tris-HCl 150 mM NaCl pH 7.5, 0.5 ml/min, absorbance at 280 and 509 nm (the legend of Fig. 2 gives Tris-HCl 100 mM, CaCl2 10 mM, pH 7.6); wild type also run with DTT
substance,measurement,setting,value
K145E SAASoti (natural protein),stoichiometry N,[1],4
K145N SAASoti (natural protein),stoichiometry N,[2],4
same,stoichiometry N,[3],4
K149E SAASoti (natural protein),stoichiometry N,[4],4
same,stoichiometry N,[5],4
K149N SAASoti (natural protein),stoichiometry N,[6],4
same,stoichiometry N,[7],4
V127T SAASoti (natural protein),stoichiometry N,[8],2
wild type SAASoti (natural protein),stoichiometry N,[9],4 and 8
